Data reported in patent US20150344570A1 (published 2015).

Each binder was assayed against T1, FcγRIIIa extracellular domain with C-terminal His tag (human, UniProt P08637 17-208) (assay: SPR Biacore, captured antibody, FcγR analyte, relative binding).
T1 construct: extracellular domain; also called FcgRIIIa; 3a; not shown: His tag attached to the C terminus
Procedure: Analysis of interaction between objective antibody and the FcγR was carried out using Biacore T100 (GE Healthcare). HBS-EP+ (GE Healthcare) was used as the running buffer, and the measurement temperature was set to 25° C. Chips produced by immobilizing the antigen peptide by the amine coupling method to a Series S Sencor Chip CM5 (GE Healthcare), or alternatively, chips produced by allowing preliminarily biotinylated antigen peptides to interact with and immobilize onto a Series S Sensor Chip SA (certified) (GE Healthcare) were used. Antibodies of interest were captured onto an antigen peptide-immobilized chip, and allowed to interact to each FcγR diluted with running buffer. To regenerate and repeatedly use the chip, the antibodies captured on the chip were washed off by reacting 10 mM glycine-HCl, pH 1.5.

T1 sequence (P08637 17-208): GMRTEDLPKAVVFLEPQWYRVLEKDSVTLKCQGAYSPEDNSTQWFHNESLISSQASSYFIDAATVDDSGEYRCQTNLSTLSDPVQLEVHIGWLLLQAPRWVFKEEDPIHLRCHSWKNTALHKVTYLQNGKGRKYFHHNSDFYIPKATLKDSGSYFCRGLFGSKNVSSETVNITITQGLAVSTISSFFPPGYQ

Binder	Ho/Con_3a
GpH7-B3 variant Q295_14T/GpL16-k0 (antibody, human IgG1, kappa, also called Ho Ab Q295_14T) heavy: not shown light: DIVMTQSPLSLPVTPGEPASISCQASESLVHSNRNTYLHWYLQKPGQSPQLLIYKVSNRFSGVPDRFSGSGSGTDFTLKISRVEAEDVGVYYCSQNTHVPPTFGQGTKVEIERTVAAPSVFIFPPSDEQLKSGTASVVCLLNNFYPREAKVQWKVDNALQSGNSQESVTEQDSKDSTYSLSSTLTLSKADYEKHKVYACEVTHQGLSSPVTKSFNRGEC	108 % of HoCon Ab GpH7-B3/GpL16-k0 (=100)
GpH7-B3 variant S239_09D/GpL16-k0 (antibody, human IgG1, kappa, also called Ho Ab S239_09D) heavy: not shown light: DIVMTQSPLSLPVTPGEPASISCQASESLVHSNRNTYLHWYLQKPGQSPQLLIYKVSNRFSGVPDRFSGSGSGTDFTLKISRVEAEDVGVYYCSQNTHVPPTFGQGTKVEIERTVAAPSVFIFPPSDEQLKSGTASVVCLLNNFYPREAKVQWKVDNALQSGNSQESVTEQDSKDSTYSLSSTLTLSKADYEKHKVYACEVTHQGLSSPVTKSFNRGEC	192 % of HoCon Ab GpH7-B3/GpL16-k0 (=100)
GpH7-B3 variant S267_02A/GpL16-k0 (antibody, human IgG1, kappa, also called Ho Ab S267_02A) heavy: not shown light: DIVMTQSPLSLPVTPGEPASISCQASESLVHSNRNTYLHWYLQKPGQSPQLLIYKVSNRFSGVPDRFSGSGSGTDFTLKISRVEAEDVGVYYCSQNTHVPPTFGQGTKVEIERTVAAPSVFIFPPSDEQLKSGTASVVCLLNNFYPREAKVQWKVDNALQSGNSQESVTEQDSKDSTYSLSSTLTLSKADYEKHKVYACEVTHQGLSSPVTKSFNRGEC	145 % of HoCon Ab GpH7-B3/GpL16-k0 (=100)
GpH7-B3 variant S267_09D/GpL16-k0 (antibody, human IgG1, kappa, also called Ho Ab S267_09D) heavy: not shown light: DIVMTQSPLSLPVTPGEPASISCQASESLVHSNRNTYLHWYLQKPGQSPQLLIYKVSNRFSGVPDRFSGSGSGTDFTLKISRVEAEDVGVYYCSQNTHVPPTFGQGTKVEIERTVAAPSVFIFPPSDEQLKSGTASVVCLLNNFYPREAKVQWKVDNALQSGNSQESVTEQDSKDSTYSLSSTLTLSKADYEKHKVYACEVTHQGLSSPVTKSFNRGEC	160 % of HoCon Ab GpH7-B3/GpL16-k0 (=100)
GpH7-B3 variant S298_14T/GpL16-k0 (antibody, human IgG1, kappa, also called Ho Ab S298_14T) heavy: not shown light: DIVMTQSPLSLPVTPGEPASISCQASESLVHSNRNTYLHWYLQKPGQSPQLLIYKVSNRFSGVPDRFSGSGSGTDFTLKISRVEAEDVGVYYCSQNTHVPPTFGQGTKVEIERTVAAPSVFIFPPSDEQLKSGTASVVCLLNNFYPREAKVQWKVDNALQSGNSQESVTEQDSKDSTYSLSSTLTLSKADYEKHKVYACEVTHQGLSSPVTKSFNRGEC	107 % of HoCon Ab GpH7-B3/GpL16-k0 (=100)
GpH7-B3 variant S337_09D/GpL16-k0 (antibody, human IgG1, kappa, also called Ho Ab S337_09D) heavy: not shown light: DIVMTQSPLSLPVTPGEPASISCQASESLVHSNRNTYLHWYLQKPGQSPQLLIYKVSNRFSGVPDRFSGSGSGTDFTLKISRVEAEDVGVYYCSQNTHVPPTFGQGTKVEIERTVAAPSVFIFPPSDEQLKSGTASVVCLLNNFYPREAKVQWKVDNALQSGNSQESVTEQDSKDSTYSLSSTLTLSKADYEKHKVYACEVTHQGLSSPVTKSFNRGEC	106 % of HoCon Ab GpH7-B3/GpL16-k0 (=100)

Second part, the binder after the results:

Ho/Con_3a	Binder
100 % of HoCon Ab GpH7-B3/GpL16-k0 (=100)	GpH7-B3 variant S337_10E/GpL16-k0 (antibody, human IgG1, kappa, also called Ho Ab S337_10E) heavy: not shown light: DIVMTQSPLSLPVTPGEPASISCQASESLVHSNRNTYLHWYLQKPGQSPQLLIYKVSNRFSGVPDRFSGSGSGTDFTLKISRVEAEDVGVYYCSQNTHVPPTFGQGTKVEIERTVAAPSVFIFPPSDEQLKSGTASVVCLLNNFYPREAKVQWKVDNALQSGNSQESVTEQDSKDSTYSLSSTLTLSKADYEKHKVYACEVTHQGLSSPVTKSFNRGEC
102 % of HoCon Ab GpH7-B3/GpL16-k0 (=100)	GpH7-B3 variant S337_18N/GpL16-k0 (antibody, human IgG1, kappa, also called Ho Ab S337_18N) heavy: not shown light: DIVMTQSPLSLPVTPGEPASISCQASESLVHSNRNTYLHWYLQKPGQSPQLLIYKVSNRFSGVPDRFSGSGSGTDFTLKISRVEAEDVGVYYCSQNTHVPPTFGQGTKVEIERTVAAPSVFIFPPSDEQLKSGTASVVCLLNNFYPREAKVQWKVDNALQSGNSQESVTEQDSKDSTYSLSSTLTLSKADYEKHKVYACEVTHQGLSSPVTKSFNRGEC
107 % of HoCon Ab GpH7-B3/GpL16-k0 (=100)	GpH7-B3 variant T335_07I/GpL16-k0 (antibody, human IgG1, kappa, also called Ho Ab T335_07I) heavy: not shown light: DIVMTQSPLSLPVTPGEPASISCQASESLVHSNRNTYLHWYLQKPGQSPQLLIYKVSNRFSGVPDRFSGSGSGTDFTLKISRVEAEDVGVYYCSQNTHVPPTFGQGTKVEIERTVAAPSVFIFPPSDEQLKSGTASVVCLLNNFYPREAKVQWKVDNALQSGNSQESVTEQDSKDSTYSLSSTLTLSKADYEKHKVYACEVTHQGLSSPVTKSFNRGEC
102 % of HoCon Ab GpH7-B3/GpL16-k0 (=100)	GpH7-B3 variant T335_10E/GpL16-k0 (antibody, human IgG1, kappa, also called Ho Ab T335_10E) heavy: not shown light: DIVMTQSPLSLPVTPGEPASISCQASESLVHSNRNTYLHWYLQKPGQSPQLLIYKVSNRFSGVPDRFSGSGSGTDFTLKISRVEAEDVGVYYCSQNTHVPPTFGQGTKVEIERTVAAPSVFIFPPSDEQLKSGTASVVCLLNNFYPREAKVQWKVDNALQSGNSQESVTEQDSKDSTYSLSSTLTLSKADYEKHKVYACEVTHQGLSSPVTKSFNRGEC
